According to paper PMC2718698, “The TCL1A Oncoprotein Interacts Directly with the NF-κB Inhibitor IκB” (PLoS ONE, 2009):

B1: AKTβ PH domain, human AKTβ PH(1–118) (domain or fragment, UniProt P31751 1-118, looked up)
chain: MNEVSVIKEGWLHKRGEYIKTWRPRYFLLKSDGSFIGYKERPEAPDQTLPPLNNFSVAECQLMKTERPRPNTFVIRCLQWTTVIERTFHVDSPDEREEWMRAIQMVANSLKQRAPGED

Legend:
[1] = target: all-cysteine-to-serine (7CS) mutant of the IκBα ankyrin domain, IκB(67–302)7CS (human) (UniProt P25963); assay: ITC; TCL1A (470 µM) injected into IκB_ank^7CS (45 µM) in the cell; 20°C; 10 mM Tris pH 7.4, 300 mM NaCl, 1 mM β-mercapto ethanol
[2] = target: T1, T cell leukaemia/lymphoma 1A (TCL1A), purified recombinant human protein (human, UniProt P56279 1-114); assay: ITC; AKT_PH (490 µM) injected into TCL1A (40 µM) or into equimolar TCL1A and IκB_ank^7CS in the cell; 20°C; 20 mM sodium phosphate pH 7.1, 300 mM NaCl, 2 mM EGTA, 1 mM β-mercapto ethanol; details: both partners purified
T1 construct: TCL1A, human; 7 N-terminal residues are not seen in the crystal structure 1JSG
T1 sequence (P56279 whole entry): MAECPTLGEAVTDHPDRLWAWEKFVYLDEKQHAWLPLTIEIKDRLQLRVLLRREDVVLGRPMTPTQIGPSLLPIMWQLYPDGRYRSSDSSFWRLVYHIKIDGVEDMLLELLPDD

[3] = target: 1:1 TCL1A:IκB_ank^7CS complex (human) (UniProt P56279); assay: as above

| Molecule | dH [1] [kcal/mol] | stoichiometry N [1] | dH [2] [kcal/mol] | stoichiometry N [2] | Kd [3] [µM] | dH [3] [kcal/mol] | stoichiometry N [3] |
| --- | --- | --- | --- | --- | --- | --- | --- |
| T cell leukaemia/lymphoma 1A (TCL1A), purified recombinant human protein (from UniProt P56279 1-114) (natural protein) | -12.7 | 0.9 |  |  |  |  |  |
| B1 |  |  | -14.6 ± 0.598 | 0.7 ± 0.3 | 5.1 | -9.32 | 0.7 |
